“Also recorded” adds a separate entry of the source.
Experiments:
MTDH-SND1 interaction = biological target: T1, MTDH-SND1 interaction (Homo sapiens, UniProt Q7KZF4); experiment: Immunoprecipitation assay: elution or co-incubation with MTDH peptides, western blot; assay type: biochemical; details: 50 uM of peptides; IP of HA-SND1 from 293T (HA-SND1 + MYC-MTDH) and of endogenous SND1 from MDA-MB-231
T1 construct: Full-length HA-tagged SND1 was co-expressed with full-length Myc-tagged wild-type (WT) or mutant MTDH in HEK293T cells; expressed in transfected cells; host or cells: 293T
T1 sequence (Q7KZF4 1-910): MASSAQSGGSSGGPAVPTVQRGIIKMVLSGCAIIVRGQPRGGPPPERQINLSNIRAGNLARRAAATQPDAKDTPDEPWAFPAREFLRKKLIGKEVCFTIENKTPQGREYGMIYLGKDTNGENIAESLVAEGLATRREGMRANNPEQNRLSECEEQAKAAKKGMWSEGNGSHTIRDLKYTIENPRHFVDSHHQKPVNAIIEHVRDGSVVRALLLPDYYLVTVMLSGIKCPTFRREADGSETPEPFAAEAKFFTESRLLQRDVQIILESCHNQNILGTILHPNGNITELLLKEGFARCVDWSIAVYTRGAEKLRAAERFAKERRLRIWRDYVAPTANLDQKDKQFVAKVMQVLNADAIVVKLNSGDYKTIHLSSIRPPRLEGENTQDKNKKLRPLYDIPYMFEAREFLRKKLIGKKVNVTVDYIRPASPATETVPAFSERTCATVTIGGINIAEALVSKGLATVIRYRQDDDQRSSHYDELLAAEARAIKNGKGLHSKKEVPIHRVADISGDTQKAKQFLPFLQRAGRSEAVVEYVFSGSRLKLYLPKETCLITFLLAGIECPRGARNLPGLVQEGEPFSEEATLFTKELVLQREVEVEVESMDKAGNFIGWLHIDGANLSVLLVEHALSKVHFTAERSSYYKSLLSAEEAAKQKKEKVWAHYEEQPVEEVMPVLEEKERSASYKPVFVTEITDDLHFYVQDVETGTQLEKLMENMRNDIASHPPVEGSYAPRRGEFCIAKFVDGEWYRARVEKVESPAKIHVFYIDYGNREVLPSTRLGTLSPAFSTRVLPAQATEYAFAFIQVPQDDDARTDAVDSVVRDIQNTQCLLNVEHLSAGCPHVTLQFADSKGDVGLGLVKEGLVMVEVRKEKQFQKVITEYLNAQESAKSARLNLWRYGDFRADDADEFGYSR
Procedure: 293T cells co-transfected with HA-SND1 and MYC-MTDH. After 48 hr cells were collected and subjected to IP assay. (FIG. 26A, FIG. 26B) Cell lysate was incubated with anti-HA antibody or IgG overnight followed by 2 hr incubation with Protein A/G beads to pull down HA-SND1 protein. The beads was washed with lysis buffer and split into 5 fractions. Each fraction was eluted with buffer or indicated peptides for 30 min. The elution fractions and beads were collected for WB. (FIG. 26C, FIG. 26D) Cell lyaste was split into 6 fractions, one of them was incubated with IgG and the rest were incubated with anti-HA antibody plus either buffer or indicated peptides. After 24 hr, the lysate was incubated with Protein A/G beads then the beads were washed in wash buffer.
Breast cancer cells MDA-MB231 were collected and subjected to IP assay. (FIG. 27A) Cell lysate was incubated with anti-SND1 antibody or IgG overnight followed by 2 hr incubation with Protein A/G beads to pull down endogenous SND1 protein. The beads were washed with lysis buffer and split into 5 fractions. Each fraction was eluted with buffer or indicated peptides for 30 min. The elution fractions and beads were collected for WB. (FIG. 27B) Cell lyaste was split into 5 fractions, and incubated with anti-SND1 antibody plus either buffer or indicated peptides. After 24 hr, the lysate was incubated with Protein A/G beads then the beads were washed in wash buffer.
293 T cells were co-transfected with HA-SND1 and MYC-MTDH. After 48 hours, the cells were collected and subject to immunoprecipitation assay. Cell lysate was incubated with anti-HA antibody or IgG overnight followed by a two hour incubation with Protein A/G beads to pull down HA-SND1 protein. The beads were washed with lysis buffer and split into five fractions. Each fraction was eluted with buffer or indicated peptides (i.e., Peptide—wt (PNSDWNAPAEEWGNW, SEQ ID NO: 16); Peptide-394A (PNSDANAPAEEWGNW, SEQ ID NO: 17); Peptide-401A (PNSDWNAPAEEAGNW, SEQ ID NO: 18) and Peptide-MT (PNSDANAPAEEAGNW, SEQ ID NO: 19) for 30 minutes.
The elution fractions and beads were collected for western blot. (FIGS. 26C and 26D) Cell lyaste was split into 6 fractions. One of the fractions was incubated with IgG and the rest were incubated with anti-HA antibody plus either buffer or indicated peptides. After 24 hours, the lysate was incubated with Protein A/G beads then the beads was washed followed by wash buffer. 50 uM of peptides was used in all the assays.
The interaction interruption effects was confirmed by endogenous immunoprecipitation (IP) of a breast cancer cell line. Briefly, cell lysates from the breast cancer cell line MDA-MB-231 were collected and subjected to IP assay. […]

SND1 = biological target: T2, SND1 (Mus musculus, UniProt Q78PY7); experiment: Anti-MTDH immunoprecipitation from PyMT;Mtdh−/− tumor cells reconstituted with murine MTDH; assay type: cell-based; details: stably expressed in PyMT;Mtdh−/− tumor cells
T2 construct: endogenous in cells; host or cells: PyMT;Mtdh−/− (A9) or PyMT;Mtdh+/+ (A13) mouse mammary epithelial/tumor cells
T2 sequence (Q78PY7 1-910): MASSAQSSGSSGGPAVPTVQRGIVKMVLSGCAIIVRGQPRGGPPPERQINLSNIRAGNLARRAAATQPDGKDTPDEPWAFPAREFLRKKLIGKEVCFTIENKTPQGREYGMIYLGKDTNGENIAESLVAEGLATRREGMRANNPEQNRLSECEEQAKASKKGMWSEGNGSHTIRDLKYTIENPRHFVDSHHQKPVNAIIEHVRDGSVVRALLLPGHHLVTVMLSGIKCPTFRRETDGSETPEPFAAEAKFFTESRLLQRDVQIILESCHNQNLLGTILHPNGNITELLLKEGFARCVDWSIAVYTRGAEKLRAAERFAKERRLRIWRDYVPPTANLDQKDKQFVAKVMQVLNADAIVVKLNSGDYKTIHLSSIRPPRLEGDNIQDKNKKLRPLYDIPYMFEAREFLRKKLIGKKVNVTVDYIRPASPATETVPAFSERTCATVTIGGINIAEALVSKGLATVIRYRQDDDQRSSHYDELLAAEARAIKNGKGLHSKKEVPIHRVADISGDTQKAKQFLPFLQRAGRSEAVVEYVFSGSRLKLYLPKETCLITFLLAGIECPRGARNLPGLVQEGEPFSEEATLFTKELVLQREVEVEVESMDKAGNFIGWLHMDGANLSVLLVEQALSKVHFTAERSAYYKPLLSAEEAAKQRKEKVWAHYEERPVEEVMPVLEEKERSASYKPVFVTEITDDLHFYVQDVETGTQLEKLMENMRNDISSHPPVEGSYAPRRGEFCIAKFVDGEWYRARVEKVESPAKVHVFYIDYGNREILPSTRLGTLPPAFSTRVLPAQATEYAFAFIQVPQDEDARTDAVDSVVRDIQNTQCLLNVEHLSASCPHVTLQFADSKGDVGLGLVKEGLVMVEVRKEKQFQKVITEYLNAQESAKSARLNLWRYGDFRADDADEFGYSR
Procedure: (FIG. 8A, FIG. 8E) Lysates from PyMT;Mtdh−/− MECs reconstituted with vector control, WT or mutant murine MTDH were immunoprecipitated with anti-MTDH antibody and immunoblotted for indicated proteins. (FIG. 8B, FIG. 8F) Mammosphere assays were performed with PyMT;Mtdh−/− pMECs reconstituted with indicated Mtdh constructs. (FIG. 8C, FIG. 8D, FIG. 8G, FIG. 8H) In vivo tumor formation (FIG. 8C, FIG. 8G for tumor incidence; FIG. 8D, FIG. 8H for tumor volumes) were performed at limiting numbers using PyMT;Mtdh−/− pMECs reconstituted with indicated WT or mutant MTDH. *Note: mouse W391D MTDH corresponds to human W394D MTDH; and mouse W398D MTDH corresponds to human W401D MTDH. Statistics: (FIG. 8B, […]) Student's t-test. (FIG. 8C, FIG. 8G) Limiting dilution analysis. (FIG. 8D, FIG. 8H) Mann-Whitney test. Data represent mean±SEM. ***p<0.001, **p<0.01, *p<0.05.
(FIG. 23A) Lysates from PyMT;Mtdh−/− tumor cells reconstituted with vector control, WT or mutant murine MTDH were immunoprecipitated with anti-MTDH antibody and immunoblotted for indicated proteins. Note all amino acid annotations are based on human MTDH. W394 and W401 of human MTDH correspond to W391 and W398 in murine MTDH, respectively. (FIG. 23B) Mammosphere assays were performed with PyMT;Mtdh−/− tumor cells reconstituted with indicated MTDH constructs. (FIG. 23C-E) In vivo tumor formation (FIG. 23C for tumor incidence; FIG. 23D, FIG. 23E for tumor volumes) were performed at limiting numbers using PyMT;Mtdh−/− tumor cells reconstituted with indicated WT or mutant MTDH. Statistics: (FIG. 23B) Student's t-test. Data represent mean±SEM. (FIG. 23C) Limiting dilution analysis. (FIG. 23D, FIG. 23E) Mann-Whitney test. **p<0.01, *p<0.05.
Immunoprecipitation and western blot For immunoprecipitation (IP) experiments, cultured cells were washed in cold PBS and lysed in lysis buffer (20 mM Tris pH 7.4, 0.15 M NaCl, 1 mM EDTA, 1 mM EGTA, 1% Tx-100, 0.0025 M Na2P2O7, 1 mM α-glycerolphosphate, 1 mM Na3VO4, and 1 mM NaF) with an EDTA-free protease inhibitor mixture (Roche Applied Science) and PMSF. Cell lysates were then incubated on ice for 10 min, centrifuged, and precleared by incubating with protein A/G beads (Santa Cruz Biotechnology) for 1 h at 4° C. For IP bead preparation, 30 μl of protein A/G beads were incubated with 5 μg of antibodies for 2 h at 4° C. IPs were carried out for overnight at 4° C., and beads were centrifuged, washed and subsequently boiled for 5 min in SDS protein loading buffer to elute bound protein. IP lysates were subjected to western blotting with indicated antibodies. […]

| Molecule | block of MTDH-SND1 interaction by peptide (MTDH-SND1 interaction) | interaction of murine MTDH mutants with SND1 (SND1) |
| --- | --- | --- |
| PNSDANAPAEEAGNW (listed as Homo sapiens) [double point mutation] | have no effect in interrupting the interaction of MTDH with SND1 |  |
| PNSDANAPAEEWGNW (listed as Homo sapiens) [single point mutation W394A] | have no effect in interrupting the interaction of MTDH with SND1 |  |
| PNSDWNAPAEEAGNW (listed as Homo sapiens) | reduced the effectiveness of the wild type peptide by half |  |
| PNSDWNAPAEEWGNW (listed as Homo sapiens) [wild type MTDH peptide] | can effectively block MTDH-SND1 interaction; also recorded: significant block MTDH-SND1 interaction |  |
| murine W401A: murine MTDH mutant W398A, corresponding to human W401A (protein) MAARSWQDELAQQAEEGSARLRELLSVGLGFLRTELGLDLGLEPKRYPGWVILVGTGALGLLLLFLLGYGWAAACAGARKKRRSPPRKREEAAPPTPAPDDLAQLKNLRSEEQKKKNRKKLPEKPKPNGRTVEVPEDEVVRNPRSITAKQAPETDKKNEKSKKNKKKSKSDAKAVQNSSRHDGKEVDEGAWETKISHREKRQQRKRDKVLTDSGSLDSTIPGIENIITVTTEQLTTASFPVGSKKNKGDSHLNVQVSNFKSGKGDSTLQVSSRLNENLTVNGGGWSEKSVKLSSQLSEEKWNSVPPASAGKRKTEPSAWTQDTGDTNANGKDWGRNWSDRSIFSGIGSTAEPVSQSTTSDYQWDVSRNQPYIDDEWSGLNGLSSADPSSDWNAPAEEAGNWVDEDRASLLKSQEPISNDQKVSDDDKEKGEGALPTGKSKKKKKKKKKQGEDNSHTQDTEDLEKDTREELPVNTSKARPKQEKACSLKTMSTSDPAEVLIKNSQPVKTLPPAISAEPSITLSKGDSDNSSSQVPPMLQDTDKPKSNAKQNSVPPSQTKSETNWESPKQIKKKKKARRET |  | completely lost the ability to interact with SND1 |

Reference: patent US10357539B2, “Use of peptides that block metadherin-SND1 interaction as treatment for cancer” (THE TRUSTEES OF PRINCETON UNIVERSITY, priority 2014, dated 2019)
